Consider five molecules from paper PMC5785977, “A dual role for the N-terminal domain of the IL-3 receptor in cell signalling” (Nature Communications, 2018).

Residue numbers refer to the chain shown, from its start. In names and notes the source's numbering stands. Where two headings read alike, the source gives them in different places.

One experiment concerns the target IL5Rα:βc (Homo sapiens) (UniProt Q01344). As to conditions: cited from earlier work.
The target of experiment [1] is IL3Rα ECD (Homo sapiens) (UniProt P26951). As to conditions: cited from earlier work.
The target in another experiment is IL3Rα:βc (Homo sapiens) (UniProt P26951). The note with it: cited from earlier work.
Experiment [2] concerns the target IL3Rα ECD (Homo sapiens) (UniProt P26951). In words: SPR. As to conditions: cited from earlier work.
Experiment [3] has the same target. Put plainly: SPR. As to conditions: cited from earlier work. The source holds these as a separate data set.
Experiment [4] shares this target. Put plainly: SPR. The note with it: cited from earlier work. This is another data set of the same source.
Experiment [5] has the same target. Put plainly: SPR. The note with it: cited from earlier work. The source holds these as a separate data set.
The target is the same in experiment [6]. Put plainly: SPR. As to conditions: cited from earlier work. This is another data set of the same source.
The next experiment addresses GMRα:βc (Homo sapiens) (UniProt P15509). As to conditions: cited from earlier work.
Experiment [7] deals with IL3Rα + βc co-expressed on COS cells (human) (UniProt P26951).
The target in experiment [8] is IL3Rα C76A,C195A + βc co-expressed on COS cells (human) (UniProt P26951).
In experiment [9] the target is IL3Rα D197L + βc co-expressed on COS cells (human) (UniProt P26951).
Experiment [10] has as its target IL3Rα SP2 + βc co-expressed on COS cells (human) (UniProt P32927).
Experiment [11] has as its target IL3Rα + βc co-expressed on COS cells (human) (UniProt P26951). Put plainly: radioligand binding; saturation binding of radioiodinated (125I) cytokine to transfected COS cells; dissociation constants by EBDA and LIGAND.
Experiment [12] addresses IL3Rα C76A,C195A + βc co-expressed on COS cells (human) (UniProt P26951). The experiment is described as above.
Experiment [13] addresses IL3Rα D197L + βc co-expressed on COS cells (human) (UniProt P26951). The experiment is described as above.
Experiment [14] deals with IL3Rα SP2 + βc co-expressed on COS cells (human) (UniProt P32927). The experiment is described as above.
Experiment [15] has as its target full-length IL3Rα expressed alone on COS cells (human) (UniProt P26951). Described as above.
Experiment [16] deals with IL-3 receptor on TF-1Hi cells (overexpressed IL3Rα) (human | human (endogenous in TF-1)) (UniProt P26951). Put plainly: radioligand binding; saturation binding of radioiodinated (125I) cytokine to TF-1Hi cells (overexpressed IL3Rα); dissociation constants by EBDA and LIGAND.
In experiment [17] the target is T1, endogenous IL-3 receptor on TF-1 cells (human (endogenous in TF-1), UniProt P26951 19-378; P32927 17-897).
T1 construct: IL-3 receptor α-subunit, endogenous in the human TF-1 erythroleukaemic cell line; beta common (βc) receptor subunit, endogenous in the human TF-1 cell line; the discussion notes that TF-1 cells also express transcripts of the IL3Rα SP2 splice variant; also called TF-1 Endogenous; source: endogenous, on TF-1 cells
Put plainly: radioligand binding; saturation binding of radioiodinated (125I) cytokine to TF-1 cells (endogenous receptor); dissociation constants by EBDA and LIGAND. The note with it: one partner purified.

Experiment [18] addresses T2, IL3Rα + βc co-expressed on CTLL-2 cells (human, UniProt P26951 19-378; P32927 17-897, N144 and R145 to K144).
T2 construct: IL-3 receptor α-subunit, human, full-length; the cDNA of the site 1 functional studies in CTLL-2 encodes a splice variant that changes N144 and R145 to K144; beta common (βc) receptor subunit, human, wild-type; also called CTLL-2 IL3Rα + βc; source: CTLL-2 cells, retrovirally transduced, on cells
T2 sequence (looked up) 1: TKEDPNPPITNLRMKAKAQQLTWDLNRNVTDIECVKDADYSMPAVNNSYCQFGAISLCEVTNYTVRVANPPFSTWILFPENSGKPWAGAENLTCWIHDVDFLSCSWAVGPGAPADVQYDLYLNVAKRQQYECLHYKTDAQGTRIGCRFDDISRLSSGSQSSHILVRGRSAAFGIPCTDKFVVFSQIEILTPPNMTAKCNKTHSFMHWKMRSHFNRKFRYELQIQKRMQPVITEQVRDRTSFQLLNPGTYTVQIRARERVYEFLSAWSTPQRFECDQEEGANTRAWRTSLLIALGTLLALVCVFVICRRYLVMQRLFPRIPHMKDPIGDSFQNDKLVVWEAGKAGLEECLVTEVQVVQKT
T2 sequence (looked up) 2: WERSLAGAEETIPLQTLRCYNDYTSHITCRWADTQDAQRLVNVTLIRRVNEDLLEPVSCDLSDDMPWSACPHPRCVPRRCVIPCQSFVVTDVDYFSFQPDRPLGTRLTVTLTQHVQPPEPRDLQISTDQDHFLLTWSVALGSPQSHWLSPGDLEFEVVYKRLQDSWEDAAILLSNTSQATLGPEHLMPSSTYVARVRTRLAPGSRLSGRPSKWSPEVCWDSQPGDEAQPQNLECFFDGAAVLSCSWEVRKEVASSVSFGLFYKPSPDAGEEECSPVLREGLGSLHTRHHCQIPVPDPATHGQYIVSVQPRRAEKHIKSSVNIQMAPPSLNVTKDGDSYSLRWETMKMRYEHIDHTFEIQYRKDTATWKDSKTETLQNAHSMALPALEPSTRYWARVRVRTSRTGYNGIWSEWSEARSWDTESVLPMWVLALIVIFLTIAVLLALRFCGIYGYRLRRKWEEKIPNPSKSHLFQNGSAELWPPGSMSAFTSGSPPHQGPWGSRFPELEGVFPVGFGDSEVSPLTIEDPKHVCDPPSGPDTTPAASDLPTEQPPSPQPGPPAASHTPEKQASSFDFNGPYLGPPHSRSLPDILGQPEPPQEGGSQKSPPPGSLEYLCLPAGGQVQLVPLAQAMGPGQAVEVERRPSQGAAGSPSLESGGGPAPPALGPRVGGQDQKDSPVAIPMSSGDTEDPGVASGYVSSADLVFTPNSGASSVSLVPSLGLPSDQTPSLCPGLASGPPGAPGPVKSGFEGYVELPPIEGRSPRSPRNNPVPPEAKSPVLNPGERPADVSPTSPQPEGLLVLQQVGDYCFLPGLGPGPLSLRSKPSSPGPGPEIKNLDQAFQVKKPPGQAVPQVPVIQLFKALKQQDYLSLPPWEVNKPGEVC
In words: radioligand binding; saturation binding of radioiodinated (125I) cytokine to the CTLL-2 cell line expressing IL3Rα and βc; dissociation constants by EBDA and LIGAND. The note with it: one partner purified.

Sequence of IL5Rα:βc (Homo sapiens) (Q01344 21-342): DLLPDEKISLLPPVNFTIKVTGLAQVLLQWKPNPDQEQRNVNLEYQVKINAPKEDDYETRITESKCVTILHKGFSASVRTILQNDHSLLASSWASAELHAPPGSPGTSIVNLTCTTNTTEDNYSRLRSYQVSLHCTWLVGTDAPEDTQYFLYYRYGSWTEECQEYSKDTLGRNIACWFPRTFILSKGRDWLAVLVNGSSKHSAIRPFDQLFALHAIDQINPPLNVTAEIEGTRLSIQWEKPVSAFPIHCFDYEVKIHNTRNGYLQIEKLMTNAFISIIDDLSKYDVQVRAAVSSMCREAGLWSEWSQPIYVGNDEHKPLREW
Sequence of GMRα:βc (Homo sapiens) (P15509 23-320): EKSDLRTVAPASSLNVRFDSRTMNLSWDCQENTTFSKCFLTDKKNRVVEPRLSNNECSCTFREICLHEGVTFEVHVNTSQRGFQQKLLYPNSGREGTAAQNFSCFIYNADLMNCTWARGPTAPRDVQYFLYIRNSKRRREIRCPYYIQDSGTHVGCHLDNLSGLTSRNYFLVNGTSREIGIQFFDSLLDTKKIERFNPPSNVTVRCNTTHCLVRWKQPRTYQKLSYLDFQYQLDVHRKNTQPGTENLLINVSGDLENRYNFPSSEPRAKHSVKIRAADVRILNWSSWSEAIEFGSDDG

Consider IL-5 (from UniProt P05113), for which the Kd (as a rule, the concentration at which binding is half-saturated) with IL5Rα:βc (Homo sapiens) is 0.2 nM.

For IL-3 (from UniProt P08700), the Kd with IL3Rα ECD (Homo sapiens) [1] is 510 nM; with IL3Rα:βc (Homo sapiens), 0.2 nM; in the experiment with IL3Rα ECD (Homo sapiens) [2], over 5000 nM; with IL3Rα ECD (Homo sapiens) [3], over 5000 nM; with IL3Rα ECD (Homo sapiens) [4], 220 nM; with IL3Rα ECD (Homo sapiens) [5], over 5000 nM. Besides, the Kd with IL3Rα ECD (Homo sapiens) [6] was over 5000 nM.

Regarding GM-CSF (from UniProt P04141), the Kd with GMRα:βc (Homo sapiens) is 0.2 nM.

B1: wild-type human IL-3, residues W13 to Q125 of the mature peptide with a W13Y mutation and a GAMGS N-terminal tail (ligand)
chain: GAMGSYVNCSNMIDEIITHLKQPPLPLLDFNNLNGEDQDILMENNLRRPNLEAFNRAVKSLQNASAIESILKNLLPCLPLATAAPTRHPIHIKDGDWNEFRRKLTFYLKTLENAQAQQ
modifications: radioiodinated with 125I in the cell-surface binding assays (residue not stated)
notes: N-terminal tail arising from the expression plasmid, left after TEV cleavage; interleukin-3, human, residues W13 to Q125 of the mature peptide; numbers count on: the mature protein; also called wild-type IL-3; interleukin-3; source: E. coli BL21 CodonPlus (DE3)-RIPL, purified (HisTrap, TEV digest, SEC, reversed-phase); not shown: Nus, N-terminal, cleaved; 6xHis, N-terminal, cleaved
As for B1, the proliferation of FDH cells co-expressing βc and wild-type IL3Rα, ED50 of the IL-3 dose–response in [7] amounted to 0.29 ng/mL. Also, in [8], the proliferation of FDH cells co-expressing βc and IL3Rα C76A,C195A, ED50 of the IL-3 dose–response was 12.2 ng/mL. Moreover, the proliferation of FDH cells co-expressing βc and IL3Rα D197L, ED50 of the IL-3 dose–response in experiment [9] was 1.71 ng/mL. In experiment [10], the proliferation of FDH cells co-expressing βc and IL3Rα SP2, ED50 of the IL-3 dose–response is 6.94 ng/mL. In addition, the Kd was 0.48 nM in experiment [11]; 1.1 nM in [12]; 4.37 nM in experiment [13]; 7.61 nM in experiment [14]; 141 nM in experiment [15]; 0.14 nM in [16]. Also, the Kd in experiment [17] is 2.06 nM; in [18] it was 0.34 nM.

B2: human IL-3 K116W, residues W13 to Q125 of the mature peptide with a W13Y mutation and a GAMGS N-terminal tail (ligand)
chain: B1 chain with K109W
modifications: radioiodinated with 125I in the cell-surface binding assays (residue not stated)
notes: N-terminal tail arising from the expression plasmid, left after TEV cleavage; interleukin-3, human, residues W13 to Q125 of the mature peptide; numbers count on: the mature protein; also called IL-3 K116W superkine; IL-3 superkine; source: E. coli BL21 CodonPlus (DE3)-RIPL, purified (HisTrap, TEV digest, SEC, reversed-phase); not shown: Nus, N-terminal, cleaved; 6xHis, N-terminal, cleaved
In the case of B2, the proliferation of FDH cells co-expressing βc and wild-type IL3Rα, ED50 of the IL-3 K116W dose–response in experiment [7] came to 0.37 ng/mL. Also, the proliferation of FDH cells co-expressing βc and IL3Rα C76A,C195A, ED50 of the IL-3 K116W dose–response in [8] stood at 2.51 ng/mL. The proliferation of FDH cells co-expressing βc and IL3Rα D197L, ED50 of the IL-3 K116W dose–response in [9] was found to be 0.6 ng/mL. In experiment [10], the proliferation of FDH cells co-expressing βc and IL3Rα SP2, ED50 of the IL-3 K116W dose–response worked out at 2.19 ng/mL. The dissociation constant (Kd) in [11] stood at 0.43 nM; in experiment [12] it was 0.94 nM; in [13], 1.6 nM; in [14], 2.98 nM; in experiment [15], 17.8 nM; in experiment [16], 0.065 nM. The dissociation constant Kd amounted to 0.35 nM in experiment [17] and 0.14 nM in experiment [18].
